Data taken from publication PMC3728920, “In situ structural analysis of the Yersinia enterocolitica injectisome” (eLife, 2013).

Biological target: the molecule itself
Test: cryo-EM structure; cryo-electron tomography and sub-volume averaging (~3 nm) of purified YscC (0.2 mg/ml) reconstituted into liposomes of E. coli polar lipids at 5:1 lipid-to-protein ratio; oligomers isolated beforehand in DDM by sucrose gradient, MonoQ and Superose 6 gel filtration

B1: YscC (outer membrane secretin of the Yersinia enterocolitica injectisome) (natural protein)
chain: QELDWLPIPYVYVAKGESLRDLLTDFGANYDATVVVSDKINDKVSGQFEHDNPQDFLQHIASLYNLVWYYDGNVLYIFKNSEVASRLIRLQESEAAELKQALQRSGIWEPRFGWRPDASNRLVYVSGPPRYLELVEQTAAALEQQTQIRSEKTGALAIEIFPLKYASASDRTIHYRDDEVAAPGVATILQRVLSDATIQQVTVDNQRIPQAATRASAQARVEADPSLNAIIVRDSPERMPMYQRLIHALDKPSARIEVALSIVDINADQLTELGVDWRVGIRTGNNHQVVIKTTGDQSNIASNGALGSLVDARGLDYLLARVNLLENEGSAQVVSRPTLLTQENAQAVIDHSETYYVKVTGKEVAELKGITYGTMLRMTPRVLTQGDKSEISLNLHIEDGNQKPNSSGIEGIPTISRTVVDTVARVGHGQSLIIGGIYRDELSVALSKVPLLGDIPYIGALFRRKSELTRRTVRLFIIEPRIIDEGIAHHLALGNGQDLRTGILTVDEISNQSTTLNKLLGGSQCQPLNKAQEVQKWLSQNNKSSYLTQCKMDKSLGWRVVEGACTPAQSWCVSAPKRGVL
notes: YscC, secretin of the Ysc injectisome, Yersinia enterocolitica E40; full-length yscC with a stop codon amplified from the pYVe40 plasmid and cloned into pBAD/mycHisA (pMA6); The signal peptide is probably cut on export (surmise); The introduction cites 12-15 subunits for secretin rings; also called secretin YscC; YscC oligomers
Q: Does B1 bind?
A: Result: binds
